This passage reports Kd results from article PMC13787487 (2026).

Holding throughout (test): FP
In one experiment the target is T1, PSD-95 PDZ3 (UniProt P78352).
T1 chain: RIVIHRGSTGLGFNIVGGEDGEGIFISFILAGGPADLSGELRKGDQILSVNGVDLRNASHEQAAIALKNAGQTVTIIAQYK

Another experiment concerns the target T2, PSD-95 PDZ2 (UniProt P78352).
T2 chain: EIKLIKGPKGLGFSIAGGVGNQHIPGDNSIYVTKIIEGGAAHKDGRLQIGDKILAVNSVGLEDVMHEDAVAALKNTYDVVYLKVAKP

The next experiment addresses T3, SHANK3 PDZ (UniProt Q9BYB0).
T3 chain: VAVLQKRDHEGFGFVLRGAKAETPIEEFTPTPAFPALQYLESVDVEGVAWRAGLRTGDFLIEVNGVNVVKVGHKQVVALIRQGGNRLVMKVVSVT

The target in another experiment is T4, SHANK1 PDZ (UniProt Q9Y566).
T4 chain: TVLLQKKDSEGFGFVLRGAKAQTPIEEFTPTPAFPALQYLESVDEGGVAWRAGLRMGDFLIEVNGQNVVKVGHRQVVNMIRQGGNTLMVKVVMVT

In a further experiment the target is T5, SHANK2 PDZ (UniProt Q9UPX8).
T5 chain: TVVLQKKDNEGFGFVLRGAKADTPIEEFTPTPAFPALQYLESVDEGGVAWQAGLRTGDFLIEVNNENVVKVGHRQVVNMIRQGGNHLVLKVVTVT

In the case of YNRTNRSRMPNLNDLKETAL [CDKL5-1 941-960], the Kd was found to be 40.7 µM with PSD-95 PDZ3; 31.3 µM in the experiment with PSD-95 PDZ2; 8.6 µM with SHANK3 PDZ; 7.6 µM with SHANK1 PDZ; 5.2 µM with SHANK2 PDZ.

For orientation: Kd means a measure of binding affinity in units of concentration.
